# Data from patent US20230357838.
# How the values were obtained:
# MGYPDa16 (unidentified) = system: T1, MGYPDa16 (unidentified)
# T1 sequence: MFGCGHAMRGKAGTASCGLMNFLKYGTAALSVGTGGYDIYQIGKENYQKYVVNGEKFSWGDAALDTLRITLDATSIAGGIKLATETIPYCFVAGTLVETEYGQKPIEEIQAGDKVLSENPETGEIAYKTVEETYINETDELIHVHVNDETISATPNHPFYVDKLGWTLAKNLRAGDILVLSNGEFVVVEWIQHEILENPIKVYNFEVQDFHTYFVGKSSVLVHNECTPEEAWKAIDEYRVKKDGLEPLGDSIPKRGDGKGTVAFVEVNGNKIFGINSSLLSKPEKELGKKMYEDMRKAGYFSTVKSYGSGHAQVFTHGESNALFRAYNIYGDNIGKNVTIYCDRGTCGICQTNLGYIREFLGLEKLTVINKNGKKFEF
# Sso7d_RhDa01_extN10 = system: T2, Sso7d_RhDa01_extN10
# T2 sequence: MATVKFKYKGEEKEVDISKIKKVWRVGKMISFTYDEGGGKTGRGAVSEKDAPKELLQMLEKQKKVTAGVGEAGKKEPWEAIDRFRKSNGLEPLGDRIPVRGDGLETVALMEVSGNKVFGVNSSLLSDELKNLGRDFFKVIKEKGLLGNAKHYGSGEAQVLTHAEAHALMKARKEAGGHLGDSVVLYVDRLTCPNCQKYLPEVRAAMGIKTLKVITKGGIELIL
# HcDa01 = system: T3, HcDa01
# T3 sequence: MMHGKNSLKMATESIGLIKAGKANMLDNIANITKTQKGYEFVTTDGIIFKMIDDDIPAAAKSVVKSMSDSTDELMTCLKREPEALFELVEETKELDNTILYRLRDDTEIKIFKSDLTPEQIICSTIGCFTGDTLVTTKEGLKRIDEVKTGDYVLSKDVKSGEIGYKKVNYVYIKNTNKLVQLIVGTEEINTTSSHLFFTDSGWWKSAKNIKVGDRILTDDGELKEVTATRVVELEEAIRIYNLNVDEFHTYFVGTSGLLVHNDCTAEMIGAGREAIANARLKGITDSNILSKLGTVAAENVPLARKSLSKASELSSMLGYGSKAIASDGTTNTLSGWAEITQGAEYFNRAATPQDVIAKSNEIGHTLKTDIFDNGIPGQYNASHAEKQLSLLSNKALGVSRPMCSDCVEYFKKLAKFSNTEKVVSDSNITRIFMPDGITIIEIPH
# Sso7d_GGGVTS_AcDa01 = system: T4, Sso7d_GGGVTS_AcDa01; details: CG 0.79, CH 0.03
# T4 sequence: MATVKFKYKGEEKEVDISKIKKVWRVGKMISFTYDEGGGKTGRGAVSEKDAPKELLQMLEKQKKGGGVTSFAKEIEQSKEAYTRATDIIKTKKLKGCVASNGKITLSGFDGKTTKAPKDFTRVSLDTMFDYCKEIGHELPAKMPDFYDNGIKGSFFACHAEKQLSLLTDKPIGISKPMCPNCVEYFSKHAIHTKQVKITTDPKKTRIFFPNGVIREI
# Sso7d_VTAGVGEAG_MGYPDa20 = system: T5, Sso7d_VTAGVGEAG_MGYPDa20
# T5 sequence: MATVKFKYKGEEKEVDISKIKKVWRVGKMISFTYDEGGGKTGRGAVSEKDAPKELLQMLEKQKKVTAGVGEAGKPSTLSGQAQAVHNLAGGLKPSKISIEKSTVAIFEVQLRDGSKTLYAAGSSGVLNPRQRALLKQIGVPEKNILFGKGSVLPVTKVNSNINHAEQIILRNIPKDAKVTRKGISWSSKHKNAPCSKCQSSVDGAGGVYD
# DddA = DddA (UniProt P0DUH5)
# [1] = system: T6, Sso7d_LSGLSDDKLKEI_AcDa01; details: CG 0.99, CH 0.17
# T6 sequence: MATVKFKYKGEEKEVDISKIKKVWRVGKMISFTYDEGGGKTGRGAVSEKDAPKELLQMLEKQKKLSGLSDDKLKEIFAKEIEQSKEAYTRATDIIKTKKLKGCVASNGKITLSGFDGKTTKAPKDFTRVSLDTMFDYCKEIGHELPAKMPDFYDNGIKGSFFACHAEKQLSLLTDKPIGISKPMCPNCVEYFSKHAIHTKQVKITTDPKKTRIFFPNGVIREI
# LbDa02 = system: T7, LbDa02; details: NGS assay; Table 1 prints SEQ 19 for this name
# T7 sequence: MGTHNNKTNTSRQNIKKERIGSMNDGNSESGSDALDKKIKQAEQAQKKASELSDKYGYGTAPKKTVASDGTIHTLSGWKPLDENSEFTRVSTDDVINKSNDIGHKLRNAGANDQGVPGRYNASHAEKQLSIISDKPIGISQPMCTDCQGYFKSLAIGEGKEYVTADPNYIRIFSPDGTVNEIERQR
# RhDa01_extN10 = system: T8, RhDa01_extN10; details: CG 0.32, CH 0.00
# T8 sequence: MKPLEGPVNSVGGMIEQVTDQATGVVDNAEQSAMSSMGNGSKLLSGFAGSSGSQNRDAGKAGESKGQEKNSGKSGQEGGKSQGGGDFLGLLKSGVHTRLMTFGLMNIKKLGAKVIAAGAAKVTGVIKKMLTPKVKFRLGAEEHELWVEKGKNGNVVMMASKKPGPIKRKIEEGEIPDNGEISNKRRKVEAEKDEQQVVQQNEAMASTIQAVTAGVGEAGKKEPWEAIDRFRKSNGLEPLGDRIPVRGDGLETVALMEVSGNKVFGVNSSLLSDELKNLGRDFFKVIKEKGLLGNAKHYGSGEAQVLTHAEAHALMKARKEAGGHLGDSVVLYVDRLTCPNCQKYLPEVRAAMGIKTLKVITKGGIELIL
# RhDa01 = system: T9, RhDa01; details: CG 0.23, CH 0.00
# T9 sequence: T8 sequence
# [2] = system: d22_PeDa01 (Pseudomonas entomophila)
substance,measurement,setting,value
unmodified dsDNA (E. coli C2566 genomic),activity (fraction deaminated),MGYPDa16 (unidentified),0.78
same,activity (fraction deaminated),Sso7d_RhDa01_extN10,0.93
same,activity (fraction deaminated),HcDa01,0
same,activity (fraction deaminated),Sso7d_GGGVTS_AcDa01,0.26
same,activity (fraction deaminated),Sso7d_VTAGVGEAG_MGYPDa20,0.72
same,activity (fraction deaminated),DddA,0.27
same,activity (fraction deaminated),[1],0.41
same,activity (fraction deaminated),LbDa02,1
same,activity (fraction deaminated),RhDa01_extN10,0.1
same,activity (fraction deaminated),RhDa01,0.07
same,activity (fraction deaminated),[2],0.79
same,activity (fraction deaminated),SsDa01,0
